Experimental data: article PMC10397247

Key:
Assay in all cases: two-hybrid library CCNG1;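 note: natural log of median RNA to DNA barcode read ratio; higher means stronger binding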
O7-bS = target: T1, O7-bS
T1 chain: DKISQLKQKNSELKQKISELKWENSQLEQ

O4-bS = target: T2, O4-bS
T2 chain: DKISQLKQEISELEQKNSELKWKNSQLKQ

O3-bS = target: T3, O3-bS
T3 chain: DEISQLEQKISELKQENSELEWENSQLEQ

O8-bS = target: T4, O8-bS
T4 chain: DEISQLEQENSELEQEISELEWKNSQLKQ

O2-bS = target: T5, O2-bS
T5 chain: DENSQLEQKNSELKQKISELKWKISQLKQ

O6-bS = target: T6, O6-bS
T6 chain: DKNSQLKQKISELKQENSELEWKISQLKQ

O5-bS = target: T7, O5-bS
T7 chain: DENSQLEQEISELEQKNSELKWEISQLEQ

P8A-bN = target: T8, P8A-bN
T8 chain: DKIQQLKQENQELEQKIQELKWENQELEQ

O16-bS = target: T9, O16-bS
T9 chain: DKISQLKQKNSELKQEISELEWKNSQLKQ

O14-bS = target: T10, O14-bS
T10 chain: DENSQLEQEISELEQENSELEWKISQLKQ

4H3632-bH = target: T11, 4H3632-bH
T11 chain: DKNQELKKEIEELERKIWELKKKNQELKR

4H342-bH = target: T12, 4H342-bH
T12 chain: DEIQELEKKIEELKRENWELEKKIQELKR

4H3070-bH = target: T13, 4H3070-bH
T13 chain: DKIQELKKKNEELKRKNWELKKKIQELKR

4H2691-bH = target: T14, 4H2691-bH
T14 chain: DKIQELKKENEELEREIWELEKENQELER

4H496-bH = target: T15, 4H496-bH
T15 chain: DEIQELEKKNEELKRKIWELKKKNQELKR

4H363-bH = target: T16, 4H363-bH
T16 chain: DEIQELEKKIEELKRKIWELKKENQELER

4H2717-bA = target: T17, 4H2717-bA
T17 chain: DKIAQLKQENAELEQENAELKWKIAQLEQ

4H2619-bH = target: T18, 4H2619-bH
T18 chain: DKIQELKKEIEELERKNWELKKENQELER

4H2745-bH = target: T19, 4H2745-bH
T19 chain: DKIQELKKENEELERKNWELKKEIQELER

4H3961-bH = target: T20, 4H3961-bH
T20 chain: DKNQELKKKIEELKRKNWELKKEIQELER

4H344-bH = target: T21, 4H344-bH
T21 chain: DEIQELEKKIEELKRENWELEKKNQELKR

4H470-bH = target: T22, 4H470-bH
T22 chain: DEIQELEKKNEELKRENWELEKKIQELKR

4H3907-bH = target: T23, 4H3907-bH
T23 chain: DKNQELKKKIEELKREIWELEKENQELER

Binder: DENSQLEQEISELEQENSELEWKISQLKQ [O14-bS]
- interaction score (O7-bS): -0.1
- interaction score (O4-bS): 0.126
- interaction score (O3-bS): -0.0513
- interaction score (O8-bS): -2.39
- interaction score (O2-bS): -1.15
- interaction score (O6-bS): 0.332
- interaction score (O5-bS): -0.394
- interaction score (P8A-bN): -0.473
- interaction score (O16-bS): 0.936
- interaction score (O14-bS): -1.18

Binder: DKIQELKKENEELEREIWELEKENQELER [4H2691-bH]
- interaction score (4H3632-bH): -1.39
- interaction score (4H342-bH): -1.06
- interaction score (4H3070-bH): 0.576
- interaction score (4H2691-bH): -0.0571
- interaction score (4H496-bH): 1.3

Binder: DKIQELKKEIEELERKNWELKKENQELER [4H2619-bH]
- interaction score (4H363-bH): 0.722
- interaction score (4H2717-bA): -0.495
- interaction score (4H2619-bH): 0.248
- interaction score (4H2745-bH): 0.382
- interaction score (4H3632-bH): -0.755
- interaction score (4H3961-bH): -0.9
- interaction score (4H342-bH): 1.45
- interaction score (4H344-bH): 1.68
- interaction score (4H470-bH): 0.724
- interaction score (4H3070-bH): -0.416
- interaction score (4H2691-bH): 0.304
- interaction score (4H3907-bH): 0.518
- interaction score (4H496-bH): -0.548
